This note sets out measurements from article PMC6860926 (Journal of the American Chemical Society, 2019).

This assay deals with human GLP-1 receptor (GLP-1R), stably expressed in FlpIn CHO cells (human) (UniProt P43220).
Chain of UniProt P43220 (P43220 24-463): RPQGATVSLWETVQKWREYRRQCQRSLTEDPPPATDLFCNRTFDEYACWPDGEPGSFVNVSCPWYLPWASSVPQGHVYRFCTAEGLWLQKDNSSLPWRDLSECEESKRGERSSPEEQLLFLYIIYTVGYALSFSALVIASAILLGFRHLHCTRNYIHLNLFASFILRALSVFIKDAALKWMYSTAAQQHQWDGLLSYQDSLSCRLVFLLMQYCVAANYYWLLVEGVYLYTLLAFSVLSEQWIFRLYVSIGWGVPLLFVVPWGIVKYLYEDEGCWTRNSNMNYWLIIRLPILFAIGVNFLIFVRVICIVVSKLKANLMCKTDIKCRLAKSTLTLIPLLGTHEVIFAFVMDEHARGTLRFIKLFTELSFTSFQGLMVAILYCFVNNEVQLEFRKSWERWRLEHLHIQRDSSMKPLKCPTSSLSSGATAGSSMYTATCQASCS

Regarding glucagon-like peptide-1 [GLP-1(7–37)], the cAMP accumulation in FlpIn CHO cells stably expressing human GLP-1R, pEC50 turned out to be 10.8.
